These results are taken from publication PMC2766623, “The Vitamin B1 Metabolism of Staphylococcus aureus Is Controlled at Enzymatic and Transcriptional Levels” (PLoS ONE, 2009).

The target of series [1] is S. aureus 4-amino-5-hydroxymethyl-2-methylpyrimidine (HMP) kinase (SaThiD) (Staphylococcus aureus ATCC25923). As to the kind of experiment: SEC-MALS; Superdex 200 10/30 size exclusion column followed by static light scattering (miniDAWN Tristar); 100 mM Tris-HCl buffer, pH 8, 150 mM NaCl; affinity purified proteins.
Another series addresses T1, SaGTPase (Staphylococcus aureus, UniProt P67682).
T1 construct: gene rsgA; monomer; gtpase-epi-tpk operon
T1 sequence (P67682 1-291): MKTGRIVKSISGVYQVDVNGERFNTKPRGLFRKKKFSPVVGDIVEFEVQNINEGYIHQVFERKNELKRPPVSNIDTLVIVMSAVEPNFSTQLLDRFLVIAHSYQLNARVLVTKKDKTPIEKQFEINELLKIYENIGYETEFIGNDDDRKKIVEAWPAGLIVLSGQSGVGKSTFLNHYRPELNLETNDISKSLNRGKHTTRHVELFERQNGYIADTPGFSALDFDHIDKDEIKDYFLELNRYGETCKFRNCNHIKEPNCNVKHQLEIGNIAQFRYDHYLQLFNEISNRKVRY
As to the kind of experiment: phosphate release, malachite green. It counts as biochemical. The following applies: 1 mM substrate, 1 mM MgCl2, 100 mM MOPS pH 7.5, 37°C.

The target in series [2] is S. aureus thiaminase type II (SaTenA) (Staphylococcus aureus ATCC25923). The series can be described thus: SEC-MALS; Superdex 200 10/30 size exclusion column followed by static light scattering (miniDAWN Tristar); 100 mM Tris-HCl buffer, pH 8, 150 mM NaCl; affinity purified proteins. For orientation: In gel filtration, larger molecules generally elute earlier.
Series [3] deals with S. aureus 5-(2-hydroxyethyl)-4-methylthiazole (THZ) kinase (SaThiM) (Staphylococcus aureus ATCC25923). Described as above.
Substrate in series [4]: Cc1ncc(CO)c(N)n1
As to the kind of experiment: radiometric [gamma-33P]-ATP phosphorylation, TLC, Lineweaver-Burk. The format is biochemical, Staphylococcus aureus. Particulars: 1 mM ATP, 2 mM MgCl2, 100 mM potassium phosphate pH 7.5, 37°C. The source says: radiometric [gamma-33P]-ATP phosphorylation, TLC, Lineweaver-Burk on SaThiD

Substrate in series [5]: Cc1ncc(C[n+]2csc(CCO)c2C)c(N)n1
As to the kind of experiment: purified protein. It counts as biochemical, Staphylococcus aureus. The following applies: 2 mM ATP, 4 mM MnCl2, 100 mM Tris-HCl pH 8.5, 37°C.

Substrate in series [6]: Cc1ncc(COP(=O)(O)OP(=O)(O)O)c(N)n1
The series can be described thus: purified protein. The format is biochemical, Staphylococcus aureus. The following applies: co-substrate THZ-[33P] (THZ phosphate), 37°C.

Substrate in series [7]: Cc1ncc(C[n+]2csc(CCO)c2C)c(N)n1
As to the kind of experiment: thiamine hydrolysis, products HMP/THZ measured by radiometric kinase assay, TLC, Lineweaver-Burk. The format is biochemical, Staphylococcus aureus. The following applies: 100 mM Tris-HCl pH 7.5, 37°C, no nucleophile needed. The text has this: thiamine hydrolysis, products HMP/THZ measured by radiometric kinase assay, TLC, Lineweaver-Burk on SaTenA

By stoichiometry N is commonly meant the number of molecules, sites or subunits per partner or assembly. As usually defined, the Km is the concentration of substrate that gives half-maximal velocity. As usually defined, the kcat is the number of substrate molecules converted per active site and unit of time at saturation.

“S. aureus 4-amino-5-hydroxymethyl-2-methylpyrimidine (HMP) kinase (SaThiD) (enzyme)” came in with a stoichiometry N in series [1] of 2. Regarding `Nc1nc2c(ncn2[C@@H]2O[C@H](COP(=O)(O)OP(=O)(O)OP(=O)(O)O)[C@@H](O)[C@H]2O)c(=O)[nH]1` [GTP], the “phosphate release, malachite green” value at SaGTPase is “the S. aureus GTPase is not restricted to GTP and exhibits a broad substrate spectrum”. “S. aureus thiaminase type II (SaTenA) (enzyme)” registered a stoichiometry N in series [2] of 3. For “S. aureus 5-(2-hydroxyethyl)-4-methylthiazole (THZ) kinase (SaThiM) (enzyme)”, in series [3], the stoichiometry N amounted to 2.

B1: SaThiD (Staphylococcus aureus subsp. aureus N315) (protein)
chain: MIKPKIALTIAGTDPTGGAGVMADLKSFHSCGVYGMGVVTSIVAQNTLGVQHIHNLNHQWVDEQLDSVFNDTLPHAIKTGMIATADTMETIRHYLMQHESIPYVIDPVMLAKSGDSLMDNDTKQNLQHTLLPLADVVTPNLPEAEEITGLTIDSEEKIMQAGRIFINEIGSKGIIIKGGHSNDTDIAKDYLFTNEGVQTFENERFKTKHTHGTGCTFSAVITAELAKGRPLFEAVHKAKKFISMSIQYTPEIGRGRGPVNHFAYLKKEGLDDELSK
notes: dimer; 831 bp ORF in tenA-thiM-thiD-thiE operon
For the molecule B1, in series [4], the Km came out at 635 ± 20 µM and the kcat came to 0.012 ± 0.00083 s⁻¹.

B2: SaTPK (Staphylococcus aureus subsp. aureus NCTC 8325) (protein)
chain: MHINLLCSDRHLPQDIWAKSNEGKWGGVDRGALILLKHQIIPFFSVGDFDSVSKEERQLLTEQLQIKPVQAEKADTDLALAVDKAVALGFDSITIYGATGGRLDHFFGAIQLLLKKAYYKHDVHIEVIDQQNKIELLPKGQHTVEKDKSYPYISFIPMTDDVELSLAGFKYNLARQMLNIGSTLTISNEIESLQAKVTVHDGLILQIRSTDLN
notes: monomer; gtpase-epi-tpk operon
As for B2, in “purified protein [5]”, the Km stood at 394 ± 74 µM and the kcat is 0.0083 ± 0.0012 s⁻¹.

B3: SaThiE (Staphylococcus aureus subsp. aureus NCTC 8325) (protein)
chain: MFNQSYLNVYFICGTSDVPSHRTIHEVLEAALKAGITLFQFREKGESALKGNDKLVLAKELQHLCHQYDVPFIVNDDVSLAKEINADGIHVGQDDAKVKEIAQYFTDKIIGLSISDLDEYAKSDLTHVDYIGVGPIYPTPSKHDAHIPVGPEMIATFKEMNPQLPIVAIGGINTNNVAPIVEAGANGISVISAISKSENIEKTVNRFKDFFNN
notes: low yield, three bands on SDS-PAGE
In the case of B3, in the series “purified protein [6]”, the Km amounted to 145 ± 36 µM.

B4: SaTenA (Staphylococcus aureus subsp. aureus NCTC 8325) (protein)
chain: MEFSQKLYQAAKPIINDIYEDDFIQKMLSGDIGADALRHYLKADAAYLKEFTNLYALLIPKMNSMNDVKFLVEQIEFMVEGEVLAHDILAQIVGESYEEIIKTKVWPPSGDHYIKHMYFQAHSRENAIYTIAAMAPCPYIYAELAKRSQSDHKLNREKDTAKWFDFYSTEMDDIINVFEAIMNKLAESMSDKELEQVKQVFLESCIHERRFFNMAMTLEQWEFGGKVND
notes: trimer by SLS
Take B4: in series [7], the Km amounted to 256 ± 44 µM and the kcat came to 0.0017 ± 0.00033 s⁻¹.
